The record followed here is patent publication US20250129170A1.

The target in this test is human EPOR on cells (293T/EPOR cells; UT-7 cells) (human) (UniProt P19235). The experiment in a line: cell-based or functional assay.
Sequence of human EPOR on cells (293T/EPOR cells; UT-7 cells) (human) (P19235 25-508): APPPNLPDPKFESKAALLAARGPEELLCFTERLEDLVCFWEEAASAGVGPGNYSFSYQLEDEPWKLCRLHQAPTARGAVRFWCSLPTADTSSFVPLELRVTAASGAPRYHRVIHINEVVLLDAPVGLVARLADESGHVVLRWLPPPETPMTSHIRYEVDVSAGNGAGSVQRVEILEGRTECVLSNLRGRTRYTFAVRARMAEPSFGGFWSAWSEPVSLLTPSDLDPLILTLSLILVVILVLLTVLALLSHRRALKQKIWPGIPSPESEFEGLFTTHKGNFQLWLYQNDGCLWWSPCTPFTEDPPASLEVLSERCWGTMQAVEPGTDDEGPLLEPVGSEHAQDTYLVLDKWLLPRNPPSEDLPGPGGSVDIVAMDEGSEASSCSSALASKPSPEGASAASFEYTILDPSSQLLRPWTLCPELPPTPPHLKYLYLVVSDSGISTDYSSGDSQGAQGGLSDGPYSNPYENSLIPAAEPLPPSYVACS
“IME005 (EPO-Fc, K45D) (from UniProt P01588 28-193) (Fc fusion)” came in with an EPO-mediated Stat5 Phosphorylation in 293T/EPOR, Elisa of 86%.
The substance “IME006 (EPO-Fc, N147K) (from UniProt P01588 28-193) (Fc fusion)” returned an EPO-mediated Stat5 Phosphorylation in 293T/EPOR, Elisa of 37%.
In turn, “IME007 (EPO-Fc, R150E) (from UniProt P01588 28-193) (Fc fusion)” displayed an EPO-mediated Stat5 Phosphorylation in 293T/EPOR, Elisa of 27%.
In the case of “IME008 (EPO-Fc, R103A) (from UniProt P01588 28-193) (Fc fusion)” it was 30%; in that of “IME009 (EPO-Fc, K45D/R103A) (from UniProt P01588 28-193) (Fc fusion)”, 13%; in that of “IME010 (EPO-Fc, N147K/R103A) (from UniProt P01588 28-193) (Fc fusion)”, 5%.
“IME011 (EPO-Fc, R150E/R103A) (from UniProt P01588 28-193) (Fc fusion)” gave an EPO-mediated Stat5 Phosphorylation in 293T/EPOR, Elisa of 5%.
“IME012 (EPO-Fc, E62R) (from UniProt P01588 28-193) (Fc fusion)” displayed an EPO-mediated Stat5 Phosphorylation in 293T/EPOR, Elisa of 4%.
With “IME013 (EPO-Fc, Q65A) (from UniProt P01588 28-193) (Fc fusion)”, the EPO-mediated Stat5 Phosphorylation in 293T/EPOR, Elisa was 100%.
Substance “IME014 (EPO-Fc, E72R) (from UniProt P01588 28-193) (Fc fusion)” returned an EPO-mediated Stat5 Phosphorylation in 293T/EPOR, Elisa of 82%.
Consider “IME015 (EPO-Fc, R76E) (from UniProt P01588 28-193) (Fc fusion)”, for which the EPO-mediated Stat5 Phosphorylation in 293T/EPOR, Elisa stood at 27%.
Take “IME030 (HSA-HBP, helix B peptide fused to albumin)”: the EPO-mediated Stat5 Phosphorylation in 293T/EPOR, Elisa came out at 0%.
For “IME031 (HSA-HBSP, helix B surface peptide fused to albumin)”, the EPO-mediated Stat5 Phosphorylation in 293T/EPOR, Elisa is 0%.
Consider “IME032 (EPO-Fc, E62A) (from UniProt P01588 28-193) (Fc fusion)”, for which the EPO-mediated Stat5 Phosphorylation in 293T/EPOR, Elisa was 2%.
Substance “IME033 (EPO-Fc, E72A) (from UniProt P01588 28-193) (Fc fusion)” had an EPO-mediated Stat5 Phosphorylation in 293T/EPOR, Elisa of 75%.
As for “IME034 (EPO-Fc, R76A) (from UniProt P01588 28-193) (Fc fusion)”, the EPO-mediated Stat5 Phosphorylation in 293T/EPOR, Elisa came out at 5%.
The same measure for “IME037 (EPO-Fc, Q58A) (from UniProt P01588 28-193) (Fc fusion)”: 71%; for “IME038 (EPO-Fc, L69A) (from UniProt P01588 28-193) (Fc fusion)”: 57%.
Regarding “IME039 (EPO-Fc, L80A) (from UniProt P01588 28-193) (Fc fusion)”, the EPO-mediated Stat5 Phosphorylation in 293T/EPOR, Elisa was found to be 32%.
The substance “IME043 (EPO-HSA, R103A) (from UniProt P01588 28-193)” returned an EPO-mediated Stat5 Phosphorylation in 293T/EPOR, Elisa of 0%.
For the substance “IME044 (EPO-HSA, Q65A/E72R) (from UniProt P01588 28-193)”, the EPO-mediated Stat5 Phosphorylation in 293T/EPOR, Elisa stood at 94%.
The same measure for “IME045 (EPO-HSA, Q65A/E72R/N83A) (from UniProt P01588 28-193)”: 105%; for “IME046 (EPO-HSA, K20A/K45A/K52A) (from UniProt P01588 28-193)”: 90%; for “IME047 (EPO-HSA, K140A/K152A) (from UniProt P01588 28-193)”: 23%.
On to “IME048 (EPO-HSA, K140A/K152A/K154A) (from UniProt P01588 28-193)”, for which the EPO-mediated Stat5 Phosphorylation in 293T/EPOR, Elisa was found to be 11%.
In turn, “IME049 (EPO-HSA, K20A/K45A/K52A/K140A/K152A/K154A) (from UniProt P01588 28-193)” yielded an EPO-mediated Stat5 Phosphorylation in 293T/EPOR, Elisa of 15%.
